{"source": "patent US9969795", "target": "recombinant influenza HA3-protein (from H3N2, Wyoming, March 2003, Sino Biological Inc.) (Influenza virus H3N2 (Wyoming, March 2003))", "assay": "SPR imaging (IBIS MX96), antibody captured on anti-human-IgG chip, HA3 1 ug/ml; global 1:1 fit in Scrubber2", "data": [{"binder": "AT10_004 mutant C (antibody, V domains shown) VH: QVQLVQSGAEVRKPGASVKVSCKASGYTFTRHGISWVRQAPGQGLEWMGWISAYTGDTDYAQKFQGRVTMTTDTSTNTAYMELRSLRSDDAAVYYCARLRLQGEVVVPPSQSNWFDPWGQGTLVTVSS VL: EIVLTQSPATLSLYPGERATLSCRASQSVSRFLAWYQQKPGQAPRLLIYDASNRATGIPARFSGSGSGTDFTLTISSLEPEDFAVYYCQQRYNWLKITFGQGTRLEIKG", "values": [{"measurement": "Kd", "result": 60, "unit": "pM"}, {"measurement": "koff", "result": "1e-06", "unit": "s⁻¹"}, {"measurement": "kon", "result": 17000, "unit": "M⁻¹ s⁻¹"}]}, {"binder": "AT10_004 mutant B (antibody, V domains shown) VH: QVQLVQSGAEVRKPGASVKVSCKASGYTFTRHGISWVRQAPGQGLEWMGWISAYTGDTDYAQKFQGRVTMTTDTSTNTAYMELRSLRSDDAAVYYCARLRLQGEVVVPPSQSNWFDPWGQGTLVTVSS VL: EIVLTQSPATLSLYPGERATLSCRASQSVSRYLAWYQQKPGQAPRLLIYDASNRATGIPARFSGSGSGTDFTLTISSLEPEDFAVYYCQQRYNWLKITFGQGTRLEIKG", "values": [{"measurement": "Kd", "result": 50, "unit": "pM"}, {"measurement": "koff", "result": "1e-06", "unit": "s⁻¹"}, {"measurement": "kon", "result": 19000, "unit": "M⁻¹ s⁻¹"}]}]}
